The values that follow come from paper PMC5526462 (Biochemistry, 2017).

The labels stand for the following.
T1: Methylobacterium extorquens PqqE (His6-MePqqE) (Methylobacterium extorquens, UniProt P71517 1-384)
T1 sequence (looked up): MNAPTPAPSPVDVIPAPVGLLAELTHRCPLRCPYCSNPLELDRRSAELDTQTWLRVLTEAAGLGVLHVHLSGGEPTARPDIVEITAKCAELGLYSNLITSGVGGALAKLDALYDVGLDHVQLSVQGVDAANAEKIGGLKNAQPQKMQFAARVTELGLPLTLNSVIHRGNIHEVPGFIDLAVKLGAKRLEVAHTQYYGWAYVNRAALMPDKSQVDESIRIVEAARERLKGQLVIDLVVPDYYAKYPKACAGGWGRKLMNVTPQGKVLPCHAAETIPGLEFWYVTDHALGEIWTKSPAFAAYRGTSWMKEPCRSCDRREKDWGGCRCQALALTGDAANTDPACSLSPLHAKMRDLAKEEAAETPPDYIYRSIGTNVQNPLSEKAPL

B1: MePqqD + MePqqA binary complex (complex, Methylobacterium extorquens)
chain: MEPTAFSGSDVPRLPRGVRLRFDEVRNKHVLLAPERTFDLDDNAVAVLKLVDGRNTVSQIAQILGQTYDADPAIIEADILPMLAGLAQKRVLER
peptide: KWAAPIVSEISVGMEVTSYESAEIDTFN
B2: Methylobacterium extorquens PqqD (MePqqD), truncation of the natural MePqqCD fusion (domain or fragment)
chain: B1 chain

Like-named read-outs stand apart in the source and are kept apart here.

Assay [1] has as its target PqqD (Methylorubrum extorquens) (UniProt Q49148). The note with it: cited from earlier work.
The target of assay [2] is PqqE (Methylorubrum extorquens) (UniProt B7KXC6). The note with it: cited from earlier work.
For assay [3] the target is unchanged. The note with it: cited from earlier work. The source holds these as a separate data set.
Assay [4] deals with B2. As to the kind of experiment: NMR titration.
The target of assay [5] is T1, Methylobacterium extorquens PqqE …. As to the kind of experiment: NMR titration.

PqqD (Methylorubrum extorquens), sequence (Q49148 whole entry): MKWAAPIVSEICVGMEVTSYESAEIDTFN

With PqqA (from UniProt Q49148), in assay [1], the dissociation constant Kd (usually the concentration at which binding is half-saturated) is 0.2 µM.

As to PqqD (from UniProt Q49148), the dissociation constant (Kd) in assay [2] is 12 µM.

Turning to PqqD-PqqA complex (from UniProt Q49148), the dissociation constant Kd in assay [3] is 5 µM.

In the case of KWAAPIVSEISVGMEVTSYESAEIDTFN [MePqqA precursor peptide (without the N-terminal methionine, cysteine 11 changed to serine)], the binding result in assay [4] is listed as “binds”.

B1: the binding result in assay [5] is “binds”.

As for B2, the binding result in assay [5] is reported as “binds”.
